{"source": "patent US8158577B2", "about": "“Modulation of cartilage homeostasis by active domains of cell binding extracellular matrix molecules” (priority 2004, dated 2012)", "molecules": {"B1": {"name": "Chondroadherin (protein)", "chain": "ACPQNCHCHSDLQHVICDKVGLQKIPKVSEKTKLLNLQRNNFPVLAANSFRAMPNLVSLHLQHCQIREVAAGAFRGLKQLIYLYLSHNDIRVLRAGAFDDLTELTYLYLDHNKVTELPRGLLSPLVNLFILQLNNNKIRELRAGRFQGAKDLRWLYLSENALSSLQPGALDDVENLAKFHVDRNQLSSYPSAALSKLRVVEELKLSHNPLKSIPDNAFQSFGRYLETLWLDNTNLEKFSDGAFLGVTTLKHVHLENNRLNQLPSNFPFDSLETLALTNNPWKCTCQLRGLRRWLEAKASRPDATCASPAKFKGQHIRDTDAFRSCKFPTKRSKKAGRH", "modifications": "homo sapiens", "notes": "leucine-rich cartilage matrix protein, 338 amino acids; human recombinant, expressed in EBNA cells or E. coli"}}, "key": {"[1]": {"assay": "Heparin binding on Heparin-Sepharose", "conditions": "eluted with NaCl (0.5, 1, 2M), Western blot or MALDI-TOF MS", "procedure": "Intact recombinant protein (10 μg, EBNA-cell expressed) diluted in PBS was passed over Heparin-Sepharose (Amersham Pharmacia) (1 ml), washed with 20 volumes of PBS and eluted with 2 M NaCl (6×1 ml). Eluted material was precipitated with ethanol, separated by SDS-PAGE (10%) and visualized by western blot (CHAD ab α-80, Larsson et al). The peptide CKFPTKRSKKAGRH (SEQ ID No:7) was diluted in PBS and passed over heparin-sepharose (100 μl), the column was washed with 20 volumes PBS and bound material eluted with 0.5, 1, and 2M NaCl (3 column volumes of each).\nRecombinant chondroadherin (10 or 100 μg) expressed in EBNA-cells was passed over Heparin-Sepharose-column (Pharmacia). The column was washed and eluted with 2M NaCl in PBS. Eluted material was separated on SDS-PAGE (10%) and detected by western blot using a chondroadherin antibody (see FIG. 4). The band at 36 kDa represents chondroadherin ant the band at 72 kDa represents a dimer of chondroadherin.\nThe candidate peptide CKFPTKRSKKAGRH (SEQ ID No: 7) was synthesized. The ability of the peptide to bind heparin was confirmed on heparin-sepharose, where material eluted with 0.5, 1 and 2M NaCl was identified by MALDI-TOF MS (data not shown)."}, "Syndecan 3": {"molecular_target": "T1, Syndecan 3 (Homo sapiens, UniProt O75056)", "T1 construct": "endogenous in cells; host or cells: human chondrosarcoma cells K105 (membrane fraction, surface-biotinylated)", "T1 sequence (O75056 whole entry)": "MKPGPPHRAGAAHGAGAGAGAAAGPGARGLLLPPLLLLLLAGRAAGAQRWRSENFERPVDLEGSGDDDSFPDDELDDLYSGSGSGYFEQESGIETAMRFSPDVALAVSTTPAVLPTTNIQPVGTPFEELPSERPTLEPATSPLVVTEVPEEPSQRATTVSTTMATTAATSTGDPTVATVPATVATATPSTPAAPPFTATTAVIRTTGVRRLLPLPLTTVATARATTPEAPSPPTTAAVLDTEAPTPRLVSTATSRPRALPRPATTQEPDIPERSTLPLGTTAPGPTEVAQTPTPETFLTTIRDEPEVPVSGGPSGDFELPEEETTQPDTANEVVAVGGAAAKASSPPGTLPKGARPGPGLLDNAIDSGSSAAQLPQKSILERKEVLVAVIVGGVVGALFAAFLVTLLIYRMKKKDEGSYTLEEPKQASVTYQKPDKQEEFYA", "assay": "Affinity purification of K105 membrane proteoglycans on chondroadherin-agarose and immunoprecipitation with pan-syndecan antibody", "type": "binding", "conditions": "eluted with 0.5 M NaCl, after heparitinase", "procedure": "Recombinant chondroadherin (2.5 mg expressed in EBNA-cells per ml agarose) was coupled to Mini-Leak agarose (Kem En Tec, A/S, Denmark) according to the manufacturer's instructions. The control agarose was treated in the same manner but with no protein added.\nHuman chondrosarcoma cells (k105) suspended in PBS were incubated with EZ-link sulfo NHS-LC biotin (Pierce Chemical Co) at a final concentration of 1 mg/ml for 1 hour at room temperature. The cells were incubated for 10 minutes in 0.1 M glycine in PBS to block free biotin, washed three times in PBS and then resuspended and homogenized in 10 mM KCl, 20 mM Tris/HCl, pH 7.4, 1 mM EDTA (1 ml/10^6 cells). Nuclei were removed by centrifugation at 1,500 g for 5 minutes, 0.15 M NaCl was added to the supernatant and the membrane fraction was collected by centrifugation at 50,000 g for 30 minutes. The pellet was suspended in 2 ml 8 M UREA, 2% […] in TBS pH 7.4 supplemented with COMPLET® protease inhibitor (Roche). The lysate was cleared by centrifugation at 14,000 g for 20 min. […]\nCell surface proteins on human chondrosarcoma cells (K105) were biotin labeled and affinity purified on chondroadherin-agarose in urea. Bound material was eluted with 0.5 M NaCl, separated on SDS-PAGE (4-12%) and detected by Western blot before or after heparitinase and chondroitinase ABC treatment. […]"}, "K9 cells": {"tested_on": "K9 cells", "assay": "Adhesion of K9 cells to selected matrix constituents (FIG. 1)", "type": "cell-based, human", "conditions": "5 μg/ml coating, 1 hour at 37° C., 50,000 cells/well seeded", "procedure": "Human cells (K9) originating from a human chondrosarcoma were a kind gift from Drs. Sven Inerot and Anders Lindahl, The Salgrenska University Hospital Gothenburg, Sweden. The K9 cells were cultured in Dulbeccos Modified Eagle Medium: Nutrient Mixture F12 (DMEM/F12 1:1) with GLUTAMAX I, supplemented with 10% fetal calf serum, 25 μg/ml ascorbic acid, 50 IU of penicillin and 50 μg/ml streptomycin (Life Technologies, Inc.). A different human cells line (K105) originating from a human chondrosarcoma was a kind gift from Dr. Sven Inerot, The Salgrenska University Hospital, Gothenburg, Sweden. […]\nTo test cell binding, the chondrosarcoma cells or bovine chondrocytes were suspended in PBS containing 0.1% BSA, 25 U/ml collagenase and added to the wells (50,000/well), in the absence or presence of various peptide pools or the synthetic peptides (200, 100, 50, 25, 12.5 μg/ml). Non-adherent cells were removed after 1 hour and adhesion was determined by measuring lysosomal N-acetylglucosaminidase (12). […]\n48-well tissue culture dishes were coated with 5 μg/ml collagen type II, tissue extracted bovine chondroadherin, human chondroadherin expressed in EBNA cells and human chondroadherin expressed in E. coli and blocked for non-specific binding with BSA. […] Nonadherent cells were removed by washing and adhesion was determined by analyzing lysosomal N-acetylglucosaminidase. […]"}}, "data": [{"molecule": "B1", "values": [{"measurement": "binding to heparin-sepharose", "setting": "[1]", "value": "bind to the heparin-sepharose"}, {"measurement": "binding to heparin-sepharose", "setting": "[1]; listed as Recombinant chondroadherin", "value": "bind heparin"}, {"measurement": "K105 membrane component bound to chondroadherin", "setting": "Syndecan 3", "value": "Syndecan 3"}, {"measurement": "adhesion of K9 cells to coated substrate (number of cells)", "setting": "K9 cells", "value": "virtually identical to that of the bacterially expressed"}]}]}
